Source: the supplement of paper PMC6757056
± gives the standard deviation of the averaged measurements.

B1: library; a variant is named by its letters at N, in order (parent)
chain: GCUGUCACCGGUGCUUGGUACGUUAUAUUCAGCCGGUCUGAUGAGUCUNNNNNNAGACGAAACAGC

Experiments:
[1] = variants of: B1; assay: FACS-Seq fitted mean relative fluorescence mCherry/BFP without ligand (log10 relative fluorescence); HEK293T overexpressing SLC46A1; higher = higher reporter protein expression; conditions: without (6R,S)-folinic acid; ligand present: no
Method: (§1)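 Hammerhead (sTRSV) ribozyme switch libraries with a ligand aptamer grafted on stem I and a randomized N4-6 loop II, cloned into the 3' UTR of mCherry and transiently transfected into HEK293T cells; RNA-Seq 72 h post transfection with ligand added 1 h before transfection; RNA read count / plasmid DNA read count normalized to the non-cleaving sTRSVctl (x100), log10; sequences with >100 DNA reads. FACS-Seq: lentiviral library sorted into 6 bins after 48 h ligand, log-normal fit mean of mCherry/BFP scaled to controls. Printed sequences are partial switch sequences.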

[2] = variants of: B1; assay: normalized RNA/DNA level without ligand (relative to sTRSVctl = 100) (log10 (% of sTRSVctl)); HEK293T overexpressing SLC46A1; higher = less ribozyme self-cleavage, higher mRNA level; conditions: without (6R,S)-folinic acid; ligand present: no
Method: as §1

[3] = variants of: B1; assay: FACS-Seq fitted mean relative fluorescence mCherry/BFP with ligand (log10 relative fluorescence); HEK293T overexpressing SLC46A1; ligand concentration (+) FACS-Seq: 6 mM; higher = higher reporter protein expression; conditions: with (6R,S)-folinic acid; ligand present: yes
Method: as §1

[4] = variants of: B1; assay: normalized RNA/DNA level with ligand (relative to sTRSVctl = 100) (log10 (% of sTRSVctl)); HEK293T overexpressing SLC46A1; ligand concentration (+) RNA-Seq: 6 mM; higher = less ribozyme self-cleavage, higher mRNA level; conditions: with (6R,S)-folinic acid; ligand present: yes
Method: as §1

| Variant | FACS-Seq fitted mean (log10) [1] | normalized RNA/DNA level without ligand (log10) [2] | FACS-Seq fitted mean (log10) [3] | normalized RNA/DNA level with ligand (log10) [4] |
| --- | --- | --- | --- | --- |
| UACGAG | 0.31 ± 0.029 | 1.689 ± 0.014 | 0.472 ± 0.14 | 1.953 ± 0.013 |
| UACGAU | 0.175 ± 0.046 | 1.9462 ± 0.0017 | 0.146 ± 0.33 | 2.02 ± 0.023 |
| UACGAC | -0.293 ± 0.061 | 2.013 ± 0.0052 | -0.283 ± 0.015 | 2.01 ± 0.039 |
| GACGAG | -0.054 ± 0.034 | 1.907 ± 0.0022 | 0.319 ± 0.29 | 2.01 ± 0.037 |
| GACGAU | 0.612 ± 0.086 | 1.954 ± 0.0091 | 0.648 ± 0.068 | 2 ± 0.037 |
| GACGAA | 0.551 ± 0.09 | 1.963 ± 0.0039 | 0.69 ± 0.21 | 2 ± 0.04 |
| AACCGG | 0.00166 ± 0.089 | 2.032 ± 0.0087 | -0.0748 ± 0.11 | 2.04 ± 0.033 |
| GACUAC | 0.495 ± 0.024 | 2.041 ± 0.011 | 0.191 ± 0.19 | 2.066 ± 0.016 |
| GACUAU | 0.375 ± 0.083 | 1.9961 ± 0.00078 | 0.557 ± 0.24 | 2.002 ± 0.0044 |
| GACUAG | 0.271 ± 0.048 | 1.934 ± 0.019 | 0.493 ± 0.089 | 2 ± 0.033 |
| UACGGU | 0.419 ± 0.099 | 1.918 ± 0.012 | 0.282 ± 0.041 | 1.98 ± 0.024 |
| UACGGA | 0.537 ± 0.046 | 1.8816 ± 0.00018 | 0.817 ± 0.11 | 2 ± 0.029 |
| UACGGG | 0.198 ± 0.013 | 1.704 ± 0.0067 | 0.717 ± 0.3 | 1.97 ± 0.053 |
| CACGCA | 0.164 ± 0.12 | 2.025 ± 0.013 | 0.119 ± 0.063 | 2.024 ± 0.011 |
| AACCUU | 0.578 ± 0.19 | 2.044 ± 0.0052 | 0.59 ± 0.22 | 2.042 ± 0.02 |
| AACCUA | -0.147 ± 0.17 | 2.0051 ± 8.4e-05 | -0.514 ± 0.18 | 2.02 ± 0.034 |
| AACUUA | 0.0993 ± 0.1 | 1.96 ± 0.032 | 0.0419 ± 0.12 | 1.98 ± 0.033 |
| AACUUG | 0.321 ± 0.0087 | 1.94 ± 0.0095 | 0.658 ± 0.031 | 1.996 ± 0.0088 |
| GAGAAA | 0.129 ± 0.016 | 1.958 ± 0.011 | 0.0474 ± 0.047 | 1.996 ± 0.01 |
| GAGAAC | 0.435 ± 0.033 | 1.964 ± 0.0051 | 0.598 ± 0.32 | 2.02 ± 0.045 |
| GAGAAG | 0.0112 ± 0.083 | 1.905 ± 0.0077 | 0.219 ± 0.32 | 2.02 ± 0.029 |
| GACUUG | 0.321 ± 0.035 | 1.956 ± 0.018 | 0.389 ± 0.13 | 1.99 ± 0.039 |
| GACGGA | 0.373 ± 0.037 | 1.991 ± 0.014 | 0.557 ± 0.19 | 2.05 ± 0.033 |
| GACGGG | 0.31 ± 0.087 | 1.99 ± 0.011 | 0.302 ± 0.24 | 2.04 ± 0.051 |

| Variant | FACS-Seq fitted mean (log10) [1] | normalized RNA/DNA level without ligand (log10) [2] | FACS-Seq fitted mean (log10) [3] | normalized RNA/DNA level with ligand (log10) [4] |
| --- | --- | --- | --- | --- |
| GACGGU | 0.318 ± 0.049 | 1.994 ± 0.016 | 0.486 ± 0.32 | 2.01 ± 0.029 |
| AACUCG | 0.22 ± 0.034 | 1.998 ± 0.014 | 0.302 ± 0.52 | 1.99 ± 0.026 |
| AAGAAG | 0.22 ± 0.028 | 1.8593 ± 0.00099 | 0.315 ± 0.053 | 2 ± 0.052 |
| AAGAAA | 0.107 ± 0.0018 | 1.935 ± 0.0037 | 0.0952 ± 0.071 | 1.99 ± 0.021 |
| AAGAAC | 0.369 ± 0.066 | 1.985 ± 0.012 | 0.624 ± 0.1 | 2 ± 0.038 |
| GACUCC | 0.513 ± 0.089 | 2.053 ± 0.012 | 0.583 ± 0.11 | 2.06 ± 0.013 |
| UACCUC | 0.402 ± 0.35 | 2.052 ± 0.0094 | 0.585 ± 0.43 | 2.04 ± 0.049 |
| UACCUG | 0.402 ± 0.083 | 1.86 ± 0.039 | 0.39 ± 0.14 | 1.99 ± 0.052 |
| UACUUG | 0.275 ± 0.057 | 1.78 ± 0.022 | 0.607 ± 0.16 | 1.98 ± 0.045 |
| UACGUG | 0.0454 ± 0.021 | 1.7 ± 0.018 | 0.518 ± 0.16 | 1.946 ± 0.011 |
| CACGUA | 0.476 ± 0.1 | 1.989 ± 0.019 | 0.649 ± 0.35 | 2.01 ± 0.025 |
| CAGAAA | 0.257 ± 0.038 | 1.944 ± 0.0067 | 0.441 ± 0.2 | 1.97 ± 0.043 |
| CAGAAU | 0.372 ± 0.044 | 1.921 ± 0.0042 | 0.495 ± 0.24 | 1.951 ± 0.0096 |
| UACCGA | 0.3629 ± 0.0013 | 1.9669 ± 0.00083 | 0.4406 ± 0.0022 | 2.04 ± 0.048 |
| UACCGU | 0.352 ± 0.017 | 1.989 ± 0.0026 | 0.431 ± 0.11 | 2.02 ± 0.048 |
| UACCGC | 0.235 ± 0.05 | 1.988 ± 0.017 | 0.503 ± 0.22 | 1.99 ± 0.066 |
| UACCGG | 0.355 ± 0.059 | 1.982 ± 0.019 | 0.676 ± 0.1 | 2.004 ± 0.0069 |
| GACCCU | 0.102 ± 0.065 | 2.065 ± 0.0032 | -0.257 ± 0.21 | 2.04 ± 0.035 |
| UACUGG | 0.0573 ± 0.058 | 1.65 ± 0.049 | 0.433 ± 0.099 | 1.97 ± 0.039 |
| UACUGC | 0.238 ± 0.013 | 2.01 ± 0.0074 | 0.329 ± 0.25 | 2.02 ± 0.049 |
| AACGAG | 0.367 ± 0.0092 | 1.82 ± 0.032 | 0.501 ± 0.065 | 1.984 ± 0.01 |
| AACGAA | 0.105 ± 0.2 | 1.9508 ± 0.00076 | 0.0527 ± 0.083 | 1.99 ± 0.045 |
| GACCAA | 0.358 ± 0.039 | 2.0328 ± 0.00084 | 0.42 ± 0.074 | 2.03 ± 0.043 |
| CACUGG | 0.801 ± 0.11 | 1.962 ± 0.013 | 0.687 ± 0.052 | 2.03 ± 0.021 |

| Variant | FACS-Seq fitted mean (log10) [1] | normalized RNA/DNA level without ligand (log10) [2] | FACS-Seq fitted mean (log10) [3] | normalized RNA/DNA level with ligand (log10) [4] |
| --- | --- | --- | --- | --- |
| CACUGA | 0.463 ± 0.077 | 2.012 ± 0.0079 | 0.325 ± 0.16 | 2.04 ± 0.028 |
| CACGAU | 0.217 ± 0.11 | 1.99 ± 0.027 | 0.334 ± 0.6 | 2.01 ± 0.021 |
| GACGUG | 0.598 ± 0.2 | 1.946 ± 0.019 | 0.734 ± 0.17 | 2.01 ± 0.029 |
| GACGUA | 0.251 ± 0.023 | 1.9997 ± 0.00027 | 0.131 ± 0.26 | 2.03 ± 0.038 |
| UACCAC | 0.907 ± 0.028 | 1.971 ± 0.0041 | 0.651 ± 0.047 | 1.994 ± 0.012 |
| GACGCC | 0.287 ± 0.023 | 2.043 ± 0.0061 | 0.0736 ± 0.3 | 2.03 ± 0.028 |
| CACCAU | 0.138 ± 0.12 | 1.9842 ± 0.00094 | 0.347 ± 0.13 | 2 ± 0.011 |
| UAGAAG | 0.056 ± 0.02 | 1.654 ± 0.0022 | 0.456 ± 0.0016 | 1.963 ± 0.019 |
| UAGAAU | 0.421 ± 0.089 | 1.921 ± 0.016 | 0.615 ± 0.02 | 2 ± 0.041 |
| UAGAAA | 0.332 ± 0.024 | 1.9239 ± 0.0006 | 0.254 ± 0.35 | 2.01 ± 0.023 |
| AACCCC | 0.581 ± 0.12 | 2.013 ± 0.0022 | 0.492 ± 0.041 | 1.99 ± 0.045 |
| UACCCG | 0.166 ± 0.063 | 1.92 ± 0.03 | 0.279 ± 0.24 | 1.977 ± 0.0043 |
| AACUGG | 0.3585 ± 0.0022 | 1.936 ± 0.013 | 0.657 ± 0.038 | 2 ± 0.07 |
| AACUGA | 0.445 ± 0.11 | 2.008 ± 0.0069 | 0.455 ± 0.17 | 2.02 ± 0.038 |
| AACCAG | 0.421 ± 0.13 | 1.966 ± 0.015 | 0.407 ± 0.2 | 2.0092 ± 0.00083 |
| AACCAU | 0.386 ± 0.012 | 1.976 ± 0.014 | 0.303 ± 0.018 | 2 ± 0.057 |
| AACUAC | 0.381 ± 0.012 | 2 ± 0.021 | 0.181 ± 0.25 | 2.005 ± 0.02 |
| AACGCA | 0.404 ± 0.048 | 2.001 ± 0.013 | 0.533 ± 0.023 | 2 ± 0.035 |
| AACGCC | 0.452 ± 0.091 | 2.0652 ± 0.0011 | 0.336 ± 0.023 | 2.07 ± 0.046 |
| AACGCU | 0.282 ± 0.034 | 2.01 ± 0.0054 | 0.217 ± 0.34 | 2 ± 0.035 |
| UACUAU | 0.437 ± 0.19 | 1.967 ± 0.018 | 0.489 ± 0.21 | 2.03 ± 0.023 |
| AACGUG | 0.4305 ± 0.0017 | 1.874 ± 0.0049 | 0.715 ± 0.2 | 1.98 ± 0.029 |
| AACGUU | 0.445 ± 0.028 | 1.991 ± 0.012 | 0.286 ± 0.094 | 1.98 ± 0.038 |
| AACGUA | 0.196 ± 0.079 | 1.9883 ± 0.00019 | 0.207 ± 0.071 | 2.02 ± 0.026 |
